By kcat is commonly meant the number of substrate molecules converted per active site and unit of time at saturation.

The test system of this series is Cc1cn([C@H]2C[C@H](O)[C@@H](COP(=O)(O)OP(=O)(O)OP(=O)(O)O)O2)c(=O)[nH]c1=O. The series can be described thus: purified protein. Conditions: poly(rA)/oligo(dT)15 template/primer; 25-250 μM TTP; labelled compound.

For the substance PFV PR-RT (Human spumaretrovirus), the Km is 45 (± 12) μM and the turnover number (kcat) was determined as 7.1 s⁻¹.

The values above are taken from paper PMC2835651.
